Data from US20220143024A1, “METHODS OF USING IMIPRIDONES” (Board of Regents, The University of Texas System, priority 2019, published 2022).

How the values were obtained:
[1] = target: BCKDHA (human) (UniProt P12694); assay: BioID-MS +ONC201
[2] = target: HSDL2 (human) (UniProt Q6YN16); assay: BioID-MS +ONC201
Sequence of HSDL2 (human) (Q6YN16 whole entry): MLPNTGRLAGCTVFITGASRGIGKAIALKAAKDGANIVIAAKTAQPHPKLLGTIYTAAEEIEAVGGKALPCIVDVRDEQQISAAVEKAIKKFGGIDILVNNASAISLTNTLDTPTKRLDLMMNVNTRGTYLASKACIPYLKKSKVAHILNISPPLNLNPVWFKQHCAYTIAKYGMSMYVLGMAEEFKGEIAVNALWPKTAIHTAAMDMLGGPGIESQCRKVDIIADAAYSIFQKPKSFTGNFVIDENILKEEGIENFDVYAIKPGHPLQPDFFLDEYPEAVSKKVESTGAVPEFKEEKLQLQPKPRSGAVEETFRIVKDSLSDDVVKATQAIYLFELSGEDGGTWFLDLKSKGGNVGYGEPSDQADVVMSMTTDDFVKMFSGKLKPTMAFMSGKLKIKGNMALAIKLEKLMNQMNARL

Sequence of BCKDHA (human) (P12694 46-445 limits assumed): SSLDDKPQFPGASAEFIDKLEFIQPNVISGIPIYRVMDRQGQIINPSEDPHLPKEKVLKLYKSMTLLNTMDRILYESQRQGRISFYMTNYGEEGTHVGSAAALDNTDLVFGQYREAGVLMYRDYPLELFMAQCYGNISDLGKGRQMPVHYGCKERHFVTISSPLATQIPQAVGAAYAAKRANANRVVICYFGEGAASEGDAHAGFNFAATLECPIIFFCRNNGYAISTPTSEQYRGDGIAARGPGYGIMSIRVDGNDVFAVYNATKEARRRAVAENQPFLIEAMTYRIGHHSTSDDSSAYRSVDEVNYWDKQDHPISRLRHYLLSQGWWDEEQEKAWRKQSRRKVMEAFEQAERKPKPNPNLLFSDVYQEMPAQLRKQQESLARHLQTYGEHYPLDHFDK

Log2 Fold change (vs control) [1]: -4.32 log2 | Log2 Fold change (vs control) [2]: -0.71 log2
Substance: FlagBirA-ClpP (WT) (from UniProt P06709 1-321; Q16740 57-277) (enzyme)
